Source: article PMC10954620

Biological target: OmcS nanowires (cytochrome OmcS filaments of Geobacter sulfurreducens) (G. sulfurreducens (endogenous in strain ΔomcZ)) (UniProt Q74A86)
Test: NMR titration; 1D 1H NMR chemical shift perturbation of the heme methyl signals of oxidized PpcA-E with and without OmcS nanowires, single point at 1:4 heme ratio periplasmic cytochrome:OmcS; 50 mM potassium phosphate with KCl (ionic strength 150 mM), pH 7, 2H2O; 298 K, 600 MHz

Sequence of UniProt Q74A86 (Q74A86 26-432, stated change not applied): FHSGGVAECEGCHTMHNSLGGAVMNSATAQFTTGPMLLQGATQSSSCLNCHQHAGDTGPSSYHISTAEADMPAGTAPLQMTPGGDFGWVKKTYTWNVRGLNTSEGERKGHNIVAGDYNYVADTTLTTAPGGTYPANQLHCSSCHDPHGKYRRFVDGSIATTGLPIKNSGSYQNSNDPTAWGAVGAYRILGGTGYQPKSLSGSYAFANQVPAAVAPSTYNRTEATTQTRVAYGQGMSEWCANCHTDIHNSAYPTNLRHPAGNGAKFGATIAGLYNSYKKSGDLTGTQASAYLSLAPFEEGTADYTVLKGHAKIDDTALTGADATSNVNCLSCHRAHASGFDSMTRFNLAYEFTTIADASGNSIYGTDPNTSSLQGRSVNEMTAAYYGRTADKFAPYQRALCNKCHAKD

Row | Substance | chemical shift change of heme methyls (Δδ)
1 | Periplasmic triheme cytochrome PpcA (natural protein) | < 0.04 ppm
2 | Periplasmic triheme cytochrome PpcB (natural protein) | < 0.04 ppm
3 | Periplasmic triheme cytochrome PpcD (natural protein) | < 0.04 ppm
4 | Periplasmic triheme cytochrome PpcE (natural protein) | < 0.04 ppm
